Paper PMC10861901

Target: A. fulgidus DsrC-trisulfide (Archaeoglobus fulgidus)
Experiment: SPR

Kd: 200 nM
Substance: DsrMKJOP complex of Archaeoglobus fulgidus (from UniProt O29749 1-332; O29748 1-555; O29747 1-142; O29751 27-269; O29750 1-395)
